Measured values from US7407655.

B1: I309 (ligand, human, UniProt P22362 24-96, looked up)
chain: KSMQVPFSRCCFSFAEQEIPLRAILCYRNTSSICSNEGLIFKLKRGKEACALDTVGWVQRHRKMLRHCPSKRK
B2: PF4 (ligand, human, UniProt P02776 32-101, looked up)
chain: EAEEDGDLQCLCVKTTSQVRPRHITSLEVIKAGPHCPTAQLIATLKNGRKICLDLQAPLYKKIIKKLLES
B3: NAP-2 (ligand, human, UniProt P02775 59-128, looked up)
chain: AELRCMCIKTTSGIHPKNIQSLEVIGKGTHCNQVEVIATLKDGRKICLDPDAPRIKKIVQKKLAGDESAD

These molecules were tested against human CXC Chemokine Receptor 3 (CXCR3) (human) (UniProt P49682) (assay: cell-based or functional assay).
Sequence of human CXC Chemokine Receptor 3 (CXCR3) (human) (P49682 whole entry): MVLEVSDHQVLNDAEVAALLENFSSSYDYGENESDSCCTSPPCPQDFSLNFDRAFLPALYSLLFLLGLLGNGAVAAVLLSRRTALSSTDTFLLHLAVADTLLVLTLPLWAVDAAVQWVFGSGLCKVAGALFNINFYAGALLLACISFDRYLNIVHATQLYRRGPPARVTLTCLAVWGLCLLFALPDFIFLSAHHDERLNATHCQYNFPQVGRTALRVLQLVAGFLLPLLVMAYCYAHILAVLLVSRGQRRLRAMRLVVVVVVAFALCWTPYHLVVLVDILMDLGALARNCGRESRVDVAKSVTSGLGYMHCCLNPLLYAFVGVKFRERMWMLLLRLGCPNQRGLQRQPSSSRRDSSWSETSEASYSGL

[Ca^2+]i changes in IP-10/MigR transfectants, > 100 nM:
ENA78 (from UniProt P42830 37-114) (ligand)
GCP-2 (from UniProt P80162 38-114) (ligand)
GROα (from UniProt P09341 35-107) (ligand)
IL-8 (from UniProt P10145 28-99) (ligand)
MCP-1 (from UniProt P13500 24-99) (ligand)
MCP-2 (from UniProt P80075 24-99) (ligand)
MCP-3 (from UniProt P80098 24-99) (ligand)
MCP-4 (from UniProt Q99616 24-98) (ligand)
MIP-1α (from UniProt P10147 24-92) (ligand)
MIP-1β (from UniProt P13236 24-92) (ligand)
RANTES (from UniProt P13501 24-91) (ligand)
eotaxin (from UniProt P51671 24-97) (ligand)
lymphotactin (from UniProt P47992 22-114) (ligand)
B1
B2
B3
